{"source": "patent US9802942B2", "about": "“Substituted 4-methyl-pyrrolo[1,2-A]pyrimidine-8-carboxamide compounds and uses thereof for modulating glucocerebrosidase activity” (Northwestern University, priority 2015, dated 2017)", "molecules": {"B1": {"name": "Saposin C: a natural co-factor of GCase (protein, UniProt P07602 311-390, looked up)", "Saposin-C": "SDVYCEVCEFLVKEVTKLIDNNKTEKEILDAFDKMCSKLPKSLSEECQEVVDTYGSSILSILLEEVSPELVCSMLHLCSG", "modifications": "Saposin-C", "notes": "a natural co-factor of GCase"}}, "key": {"wt. GCase": {"target": "T1, wt. GCase (Homo sapiens, UniProt P04062)", "T1 construct": "purchased Shire Human Genetic Therapies, Inc. Vpriv", "T1 sequence (P04062 40-536)": "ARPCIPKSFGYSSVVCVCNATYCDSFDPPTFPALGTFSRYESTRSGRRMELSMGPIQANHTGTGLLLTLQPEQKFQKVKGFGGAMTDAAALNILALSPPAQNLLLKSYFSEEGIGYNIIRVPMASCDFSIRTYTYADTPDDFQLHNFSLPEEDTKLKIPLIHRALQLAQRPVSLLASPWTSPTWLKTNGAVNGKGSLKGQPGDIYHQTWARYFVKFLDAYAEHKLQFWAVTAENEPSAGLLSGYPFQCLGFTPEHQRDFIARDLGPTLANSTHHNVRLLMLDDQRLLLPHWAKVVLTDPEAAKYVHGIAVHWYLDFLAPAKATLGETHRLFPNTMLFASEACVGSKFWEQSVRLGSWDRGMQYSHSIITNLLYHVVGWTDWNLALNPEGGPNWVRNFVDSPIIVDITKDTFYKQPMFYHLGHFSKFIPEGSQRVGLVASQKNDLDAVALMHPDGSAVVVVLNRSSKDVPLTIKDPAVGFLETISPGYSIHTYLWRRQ", "test": "Saposin C activation assay with 4MU-Glc substrate, wt. enzyme", "format": "biochemical", "conditions": "pH 4.7", "description": "(§1) Saposin C (0.5 μL/well) was added to a black 96-well plate (the final titration was 1.72 nM to 1.76 μM, 12 concentrations). The compound 4 activated enzyme and wt. enzyme (33.5 μL/well, 7.5 nM final concentration) in assay buffer (50 mM Citric acid, 176 mM K2HPO4, 0.01% tween-20, 0.01% (g/mL) phosphatidylserine, pH 4.7) was added to the wells, respectively. After 5 min of incubation at room temperature, the enzyme reaction was initiated by the addition of 33 μL/well 4MU-Glc substrate. Final concentrations of the 4MU-Glc substrate was 1.5 mM. The reaction was terminated by the addition of 33 μL/well stop solution (1 M NaOH and 1 M glycine mixture, pH 10) after 30 min of incubation at 37° C. The fluorescence was then measured in the plate reader with Ex=365 nm and Em=440 nm."}, "covalent activated GCase": {"target": "T2, covalent activated GCase (Homo sapiens, UniProt P04062)", "T2 construct": "purchased Shire Human Genetic Therapies, Inc. Vpriv", "T2 sequence (P04062 40-536)": "T1 sequence (P04062 40-536)", "test": "Saposin C activation assay with 4MU-Glc substrate, probe 4 pre-activated enzyme", "format": "biochemical", "conditions": "pH 4.7", "description": "as §1"}}, "data": [{"molecule": "B1", "values": [{"measurement": "AC50", "setting": "wt. GCase", "value": 100, "unit": "nM"}, {"measurement": "AC50", "setting": "covalent activated GCase", "value": 71, "unit": "nM"}]}]}
